{
  "source": "paper PMC11756378",
  "about": "“Centriolar cap proteins CP110 and CPAP control slow elongation of microtubule plus ends” (The Journal of Cell Biology, 2025)",
  "key": {"[1]": {"molecular_target": "CEP97^CP110-GFP-SII (CEP97 residues 1–650 fused to CP110 residues 581–991) (human) (UniProt Q8IW35)"}, "[2]": {"molecular_target": "T1, CPAP-CC1 (residues 89–196) (human, UniProt Q9HC77 89-196)", "T1 construct": "Calculated mass of the monomer: 12.5 kDa; source: E. coli BL21(DE3), purified (Ni-NTA, tag cleaved with HRV 3C protease, SEC); not shown: thioredoxin, N-terminal, cleaved; His6, N-terminal, cleaved", "T1 sequence (looked up)": "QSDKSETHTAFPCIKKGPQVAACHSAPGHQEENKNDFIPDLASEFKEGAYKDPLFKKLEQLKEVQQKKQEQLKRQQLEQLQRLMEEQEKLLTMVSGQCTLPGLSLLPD", "assay": "cross-linking; zero-length cross-linking with 60 mM DMTMM, 6 min, 25°C, then mass spectrometry (xQuest)", "conditions": "both partners purified"}, "[3]": {"molecular_target": "the molecule itself", "assay": "SEC-MALS; 20°C, Superdex S75 10/30 or S200 10/30, 20 mM HEPES pH 7.5, 150 mM NaCl, 2 mM DTT; 15 µl at ∼7 mg/ml; proteins alone or mixed equimolar (also 2:1 and 3:1); homodimer for CP110-CC2"}, "[4]": {"molecular_target": "the molecule itself", "assay": "single-molecule fluorescence intensity (TIRF microscopy); single molecules immobilised on coverslips in MRB80; intensity compared with GFP (monomers) and GFP-EB3 (dimers)"}},
  "data": [
    {"molecule": "CPAP-NMUT-mCh (CPAP 1–607 L149A/K150A, GCN4 leucine zipper, mCherry, SII) (from UniProt Q9HC77 1-607)", "values": [
      {"measurement": "percentage of time CEP97^CP110-GFP was bound to MT plus ends, 20 nM CEP97^CP110-GFP with 50 nM CPAP-NMUT-mCh", "setting": "[1]", "result": 26, "unit": "%"}
    ]},
    {"molecule": "CPAP-NWT-mCh (CPAP 1–607, GCN4 leucine zipper, mCherry, SII) (from UniProt Q9HC77 1-607)", "values": [
      {"measurement": "MT plus-end growth rate with 20 nM CEP97^CP110-GFP and 50 nM CPAP-NWT-mCh (TIRF reconstitution)", "setting": "[1]", "result": "0.05 to 0.1", "unit": "µm/min"},
      {"measurement": "percentage of time CEP97^CP110 was present at MT plus ends, 20 nM CEP97^CP110-GFP with 50 nM CPAP-NWT-mCh", "setting": "[1]", "result": 69, "unit": "%"}
    ]},
    {"molecule": "CP110-CC2 (residues 635–717) (domain or fragment, human, UniProt O43303-2 635-717, looked up, CP110, human, residues 635-717 (coiled-coil domain CC2); Homodimer alone by SEC-MALS; one chain in the heterodimer with CPAP-CC1; Calculated mass of the monomer: 10.0 kDa; also called CP110 fragment 635–717; source: E. coli BL21(DE3), purified (Ni-NTA, tag cleaved with HRV 3C protease, SEC); not shown: thioredoxin, N-terminal, cleaved; His6, N-terminal, cleaved) GTSSKESEELLKSKMLAFEEMRKRLEEQHAQQLSLLIAEQEREQERLQKEIEEQEKMLKEKKAMTAEASELDINNAVELEWRK", "values": [
      {"measurement": "binding result", "setting": "[2]", "result": "binds"},
      {"measurement": "stoichiometry N", "setting": "[3]", "result": 2}
    ]},
    {"molecule": "CEP97^CP110-GFP-SII (CEP97 residues 1–650 fused to CP110 residues 581–991) (other, human, UniProt Q8IW35 1-650, looked up, CEP97, human, residues 1-650; Dimer by single-molecule fluorescence intensity; A linker between the two parts is not described; also called CP110-CEP97 fusion; CEP97^CP110 chimera; source: HEK293T, transfected; purified (StrepTactin) for the in vitro assays; in lysate for the co-immunoprecipitation; not shown: GFP, C-terminal, kept; twin-Strep-tag (SII), C-terminal, kept) MAVARVDAALPPGEGSVVNWSGQGLQKLGPNLPCEADIHTLILDKNQIIKLENLEKCKRLIQLSVANNRLVRMMGVAKLTLLRVLNLPHNSIGCVEGLKELVHLEWLNLAGNNLKAMEQINSCTALQHLDLSDNNISQIGDLSKLVSLKTLLLHGNIITSLRMAPAYLPRSLAILSLAENEIRDLNEISFLASLTELEQLSIMNNPCVMATPSIPGFDYRPYIVSWCLNLRVLDGYVISQKESLKAEWLYSQGKGRAYRPGQHIQLVQYLATVCPLTSTLGLQTAEDAKLEKILSKQRFHQRQLMNQSQNEELSPLVPVETRASLIPEHSSPVQDCQISQESEPVIQVNSWVGINSNDDQLFAVKNNFPASVHTTRYSRNDLHLEDIQTDEDKLNCSLLSSESTFMPVASGLSPLSPTVELRLQGINLGLEDDGVADESVKGLESQVLDKEEEQPLWAANENSVQMMRSEINTEVNEKAGLLPCPEPTIISAILKDDNHSLTFFPESTEQKQSDIKKPENTQPENKETISQATSEKLPMILTQRSVALGQDKVALQKLNDAATKLQACWRGFYARNYNPQAKDVRYEIRLRRMQEHIVCLTDEIRRLRKERDEERIKKFVQEEAFRFLWNQVRSLQVWQQTVDQRLSSWHFEKVKRRLDLDIDGLQKENCPYVITSGITEQERQHLPEKRYPKGSGFVNKNKMLGTSSKESEELLKSKMLAFEEMRKRLEEQHAQQLSLLIAEQEREQERLQKEIEEQEKMLKEKKAMTAEASELDINNAVELEWRKISDSSLLETMLSQADSLHTSNSNSSGFTNSAMQYSFVSANEAPFYLWGSSTSGLTKLSVTRPFGRAKTRWSQVFSLEIQAKFNKITAVAKGFLTRRLMQTDKLKQLRQTVKDTMEFIRSFQSEAPLKRGIVSAQDASLQERVLAQLRAALYGIHDIFFVMDAAERMSILHHDREVRKEKMLRQMDKMKSPRVALSAATQKSLDRKKYMKAAEMGMPNKKFLVKQNPSETRVLQPNQGQNAPVHRLLSRQGSICRKNPKKAAKCCDNLRRQHSLG", "values": [
      {"measurement": "stoichiometry N", "setting": "[4]", "result": 2}
    ]}
  ]
}
